Assay [1] deals with T1, cTnI protein (ab207624; Abcam) (UniProt P19429 1-210, limits assumed).
T1 construct: also called cardiac troponin I
The assay is described as follows: PPR-based homogeneous assay, specificity test (trastuzumab-DNA1 with pertuzumab-DNA2). As for the experimental part:
(§1) In a homogeneous assay to detect the target substance, samples were mixed with four conjugates (TEVP-first DNA′, BLZ-second DNA′, first binder-first DNA agent, second binder-second DNA) and […] CENTA™ (EMD Millipore, USA) in a reaction buffer (137 mM NaCl, 2.7 mM KCl, 10 mM Na₂HPO₄, 2 mM KH₂PO₄, 40 mM MgCl₂, 10 mM DTT, 0.5% (w/v) BSA, and pH 7.4). Hydrolysis of CENTA™ by β-lactamase was monitored by measuring absorbance (A₄₀₅) at 405 nm using a plate reader (synergy HT multi-detection reader; BioTek Instruments, USA) at 37° C. for 1 hour. The absorbance signal (ΔAbs=A₄₀₅ at 60 min−A₄₀₅ at 1 min) was plotted as a function of the concentration of the target substance. All experiments were performed at least three times and the limit of detection (LOD) was calculated as the sum of the mean ΔAbs of the blank and three times the standard deviation. In the competitive immunoassay for small molecule detection, an antibody against the target was further contained in the reaction solution. The following proteins were used as targets: HER2 (extracellular domain; 10004-H₀₈H; Sino Biological, China), cTnI protein (ab207624; Abcam, United Kingdom), thrombin (ab62452; Abcam), digoxigenin (D9026; Sigma, USA), digoxigenin polyclonal antibody (PA1-85378; Thermo Fisher Scientific, USA) and hCG monoclonal antibody (MA5-14680; Thermo Fisher Scientific).

The target in assay [2] is thrombin (ab62452; Abcam) (human, UniProt P00734 328-622). The assay is described as above. The protocol:
as §1

T1 sequence (P19429 whole entry): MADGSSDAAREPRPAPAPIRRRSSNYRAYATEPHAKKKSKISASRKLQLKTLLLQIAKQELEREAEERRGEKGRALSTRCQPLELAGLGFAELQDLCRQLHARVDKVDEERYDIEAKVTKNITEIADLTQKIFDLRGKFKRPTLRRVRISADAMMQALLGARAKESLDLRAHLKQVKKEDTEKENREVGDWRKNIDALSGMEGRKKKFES

B1: pertuzumab-second DNA conjugate (antibody, V domains shown)
VH: EVQLVESGGGLVQPGGSLRLSCAASGFTFTDYTMDWVRQAPGKGLEWVADVNPNSGGSIYNQRFKGRFTLSVDRSKNTLYLQMNSLRAEDTAVYYCARNLGPSFYFDYWGQGTLVTVSS
VL: DIQMTQSPSSLSASVGDRVTITCKASQDVSIGVAWYQQKPGKAPKLLIYSASYRYTGVPSRFSGSGSGTDFTLTISSLQPEDFATYYCQQYYIYPYTFGQGTKVEIKR
modifications: amine groups conjugated to amine-modified second DNA (SEQ ID NO: 2) via a bis-NHS ester linker; heterogeneous product, sites not stated
notes: IgG made in HEK293F cells and conjugated to ssDNA; also called pertuzumab-DNA2; P-D2
For B1, the binding result in assay [1] and in assay [2] was “no binding (tested: 10 nM)” in each case.

Values taken from patent publication US20240151714A1 (AJOU UNIVERSITY INDUSTRY ACADEMIC COOPERATION FOUNDATION, published 2024).
